How the values were obtained:
[1] = biological target: T1, IFNα receptor on GloResponse ISRE-luc2P/HEK293 cells (UniProt P17181); experiment: cell-based or functional assay
T1 sequence (looked up) 1: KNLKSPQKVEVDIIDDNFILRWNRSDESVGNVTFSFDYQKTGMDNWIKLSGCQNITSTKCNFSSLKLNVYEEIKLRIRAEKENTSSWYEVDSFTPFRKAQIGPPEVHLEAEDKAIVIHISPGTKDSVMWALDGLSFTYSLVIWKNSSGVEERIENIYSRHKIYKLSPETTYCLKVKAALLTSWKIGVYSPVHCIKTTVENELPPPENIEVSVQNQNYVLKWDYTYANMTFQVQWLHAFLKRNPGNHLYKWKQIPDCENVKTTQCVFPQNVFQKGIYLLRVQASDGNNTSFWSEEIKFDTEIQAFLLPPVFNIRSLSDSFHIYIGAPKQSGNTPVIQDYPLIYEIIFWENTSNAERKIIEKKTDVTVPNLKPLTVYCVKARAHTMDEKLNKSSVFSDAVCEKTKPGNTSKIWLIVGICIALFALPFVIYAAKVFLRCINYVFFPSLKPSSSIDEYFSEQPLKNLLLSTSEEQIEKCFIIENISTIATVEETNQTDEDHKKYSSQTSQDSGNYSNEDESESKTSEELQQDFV
T1 sequence (looked up) 2: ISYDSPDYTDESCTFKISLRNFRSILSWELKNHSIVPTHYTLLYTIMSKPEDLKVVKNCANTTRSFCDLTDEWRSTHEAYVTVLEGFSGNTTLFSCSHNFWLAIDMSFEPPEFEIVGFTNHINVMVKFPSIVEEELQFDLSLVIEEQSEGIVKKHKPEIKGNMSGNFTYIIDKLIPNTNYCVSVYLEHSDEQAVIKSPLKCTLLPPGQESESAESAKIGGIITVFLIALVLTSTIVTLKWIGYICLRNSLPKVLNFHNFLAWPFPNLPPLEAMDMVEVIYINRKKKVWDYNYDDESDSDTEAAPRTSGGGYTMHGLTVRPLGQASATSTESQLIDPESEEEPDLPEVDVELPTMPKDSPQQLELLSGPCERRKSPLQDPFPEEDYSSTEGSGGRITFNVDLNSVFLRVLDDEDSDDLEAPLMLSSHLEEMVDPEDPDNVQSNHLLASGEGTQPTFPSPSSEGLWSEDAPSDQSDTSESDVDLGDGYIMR

[2] = biological target: IL-2Rβ/IL-2Rγ receptor subunits on PathHunter U2OS IL-2Rβ/IL-2Rγ/(IL-2Rα) cells (UniProt P14784); experiment: cell-based or functional assay

Substance | EC50 of IL-15-induced IL-2Rβ/IL-2Rγ dimerisation (PathHunter U2OS chemiluminescence), +MMP-9 [2] | EC50, ISRE-luc2P/HEK293 luciferase reporter, +MMP9 [1] | other results
H16/L16-PVGLIG-hIFNα2a cleaved by MMP-9 (released hIFNα2a) (from UniProt P01563 24-188) (ligand) |  |  | EC50, ISRE-luc2P/HEK293 luciferase reporter, +MMP9, no pre incubation of the cells with H16/L16 antibody [1]: 0.02 nM; EC50, ISRE-luc2P/HEK293 luciferase reporter, +MMP9, pre incubation of the cells with H16/L16 antibody (to saturate IGF1-R binding sites) [1]: 0.02 nM
NHS76-PVGLIG-hIFNα2a (from UniProt P01563 23-188) |  |  | EC50, ISRE-luc2P/HEK293 luciferase reporter, -MMP9 [1]: 5.33 nM
NHS76-PVGLIG-hIFNα2a cleaved by MMP-9 (released hIFNα2a) (from UniProt P01563 24-188) (ligand) |  | 0.03 nM | 
NHS76-PVGLIG-hIL-15 cleaved by MMP-9 (released hIL-15) (from UniProt P40933 49-162) (ligand) | 8.84 nM |  | 
Recombinant human IFNα2a (from UniProt P01563 24-188) (ligand) |  | 0.05 nM | EC50, ISRE-luc2P/HEK293 luciferase reporter, -MMP9 [1]: 0.08 nM
Recombinant human IL-15 (from UniProt P40933 49-162) (ligand) | 0.71 nM |  | EC50 of IL-15-induced IL-2Rβ/IL-2Rγ dimerisation (PathHunter U2OS chemiluminescence), -MMP-9 [2]: 0.72 nM
c9G4-PVGLIG-hIL-15 cleaved by MMP-9 (released hIL-15) (from UniProt P40933 49-162) (ligand) | 2.07 nM |  | 

Second part, led by results:

EC50 of IL-15-induced IL-2Rβ/IL-2Rγ dimerisation (PathHunter U2OS chemiluminescence), +MMP-9 [2] | EC50, ISRE-luc2P/HEK293 luciferase reporter, +MMP9 [1] | Substance | other results
2.84 nM |  | H16/L16-PVGLIG-hIL-15 cleaved by MMP-9 (released hIL-15) (from UniProt P40933 49-162) (ligand) | 
 | 0.02 nM | c9G4-PVGLIG-hIFNα2a cleaved by MMP-9 (released hIFNα2a) (from UniProt P01563 24-188) (ligand) | 
